Measurements published in patent publication US20010004522A1, “KINASE ACTIVITY MEASUREMENT USING FLUORESCENCE POLARIZATION” (priority 1997, published 2001).
Blank lines part the entries; values can stand above or below the molecule they belong to.

Key:
[1] = target: T1, T-cell protein tyrosine phosphatase (Homo sapiens, UniProt P17706); test: Phosphatase activity by fluorescence polarization; assay type: biochemical; settings: 1.0 mM Na3VO4, 0.5 U T-cell protein tyrosine phosphatase, 30° C.
T1 construct: purchased New England Biolabs
T1 sequence (P17706 1-317 limits assumed): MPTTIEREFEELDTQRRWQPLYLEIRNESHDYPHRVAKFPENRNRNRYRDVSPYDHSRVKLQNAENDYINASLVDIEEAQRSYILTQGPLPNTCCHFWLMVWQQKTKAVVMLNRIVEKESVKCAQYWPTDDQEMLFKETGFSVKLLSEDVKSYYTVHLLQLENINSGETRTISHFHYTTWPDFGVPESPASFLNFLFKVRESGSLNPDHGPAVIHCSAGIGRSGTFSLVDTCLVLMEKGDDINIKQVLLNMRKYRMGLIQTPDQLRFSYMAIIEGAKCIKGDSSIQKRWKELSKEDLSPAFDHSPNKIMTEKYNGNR
Protocol: Fluorescence polarization can also be used to measure phosphatase activity.
Phosphatase enzyme was added to a high polarization mixture and as it removed the phosphate from the peptide, the antibody was released, and the polarization value went down, shown in FIG. 13. Two control experiments were performed. […] This assay was performed with all of the reaction and detection components present in a test tube. However, this reaction could also be done as an endpoint assay with aliquots of the reaction taken at incremental time points, or with different reactions started at the same time but terminated at incremental time points.

[2] = target: EGF receptor (Homo sapiens, UniProt P00533); settings: 50 mM EDTA, ~12.5 nM EGF receptor, 30° C., polarization read every 10 seconds
[3] = tested on: GFAP peptide; test: Radioactive (32P) kinase assay of PKC isozymes on GFAP peptide; assay type: biochemical; settings: GFAP peptide 100 μg/ml, 10 μM ATP, 100 μM CaCl2, no EGTA
[4] = target: T2, PKC Epsilon (ε) substrate peptide (Homo sapiens, UniProt Q02156); test: PKC activity assay, phospholipid dependence; assay type: biochemical
T2 construct: made in house
T2 sequence (Q02156 1-737): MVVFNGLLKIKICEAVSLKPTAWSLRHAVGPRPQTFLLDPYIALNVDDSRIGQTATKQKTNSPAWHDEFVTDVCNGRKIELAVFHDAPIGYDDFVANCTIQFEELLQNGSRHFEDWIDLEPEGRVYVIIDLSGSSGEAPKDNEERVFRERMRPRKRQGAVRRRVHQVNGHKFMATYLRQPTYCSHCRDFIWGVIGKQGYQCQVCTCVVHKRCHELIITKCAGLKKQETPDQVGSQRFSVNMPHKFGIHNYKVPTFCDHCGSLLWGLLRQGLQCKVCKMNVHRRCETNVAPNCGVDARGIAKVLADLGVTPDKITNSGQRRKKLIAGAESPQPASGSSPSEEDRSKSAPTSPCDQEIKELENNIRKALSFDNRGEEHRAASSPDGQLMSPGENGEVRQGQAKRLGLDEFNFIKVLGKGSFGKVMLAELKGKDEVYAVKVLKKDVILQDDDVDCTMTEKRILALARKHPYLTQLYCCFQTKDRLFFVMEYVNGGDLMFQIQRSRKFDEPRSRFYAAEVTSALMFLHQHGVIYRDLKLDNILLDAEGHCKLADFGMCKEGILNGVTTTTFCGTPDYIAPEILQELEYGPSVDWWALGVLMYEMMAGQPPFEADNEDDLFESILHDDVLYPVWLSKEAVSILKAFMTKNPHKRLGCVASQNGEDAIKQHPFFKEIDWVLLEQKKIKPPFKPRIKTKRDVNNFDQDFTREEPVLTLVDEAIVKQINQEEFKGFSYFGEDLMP
Source text: The purpose of this protocol is to provide the reader with the conditions that we use to determine the activity and phospholipid dependence of Protein Kinase C ε. This protein is purified to near homogeneity and may behave differently from crude preparations. The calculated molecular weight of the protein is 83.5 kDa. Apparent molecular weights of 89-96 kDa have been reported in the literature, and the protein may run as a doublet (1). […] With the assay described in this protocol, we typically see a two-fold phosphatidylserine stimulation of activity. There are many factors that can affect the phospholipid dependence of this enzyme and it will display different degrees of dependency for different substrates. The quality of the lipids used is very important and can affect the lipid dependency dramatically. The reaction conditions given in this protocol and the enzyme concentration ranges used give linear reaction kinetics over at least ten minutes.
[…] of Phosphatidylserine (1.2 μl of 10 mg/ml PS Stock) and […] of diacylglycerol (0.6 μl of 2 mg/ml DAG Stock) are needed per reaction. Determine the total amount of each needed for the number of reactions one is running and make up 10% more lipid mix than required to account for pipetting loss.
Using a Hamilton syringe (remember to clean out with methanol), transfer the required volume of each lipid stock to a 12×75 mm glass test tube. Thoroughly dry down the chloroform with a nitrogen stream and gentle rotation of the tube. Resuspend the dried mixture with 10 μl buffer per reaction. Resuspension buffer is 10 mM HEPES, pH 7.4/0.3% Triton X-100. Vortex into solution/suspension. This will take at least two minutes of vortexing. Place the lipid mix in a 40° C. water bath for 5 minutes prior to adding to the reaction mix.
1). Make up the reaction mix. All assays should be done in triplicate. Two blanks (reaction mix with no enzyme added) should be included and one tube for determining the total cpm's in a reaction.
2). Dispense 60 μl of mix into each tube and place tubes at 30° C.
3). Dilute the protein to be assayed to between 20 and 50 ng/μl.
4). Add 2 μl of diluted enzyme to each tube at 20 second intervals. Blanks have no enzyme added.
5). Stop reactions at 10 minutes by adding 6 μl 5% phosphoric acid.
6). Incubate on ice for 5 minutes.
7). Spot 5 μl of reaction mix on to two phosphocellulose membranes. These are the “Totals”.
8). Transfer 55 μl from each tube to phosphocellulose membranes. Allow to dry. Wash the membranes three times with 5 ml 0.5% phosphoric acid per filter in a 400 ml beaker.
9). Transfer membranes to scintillation vials and count (drying is not necessary). […]

Sequence of EGF receptor (P00533 25-1210): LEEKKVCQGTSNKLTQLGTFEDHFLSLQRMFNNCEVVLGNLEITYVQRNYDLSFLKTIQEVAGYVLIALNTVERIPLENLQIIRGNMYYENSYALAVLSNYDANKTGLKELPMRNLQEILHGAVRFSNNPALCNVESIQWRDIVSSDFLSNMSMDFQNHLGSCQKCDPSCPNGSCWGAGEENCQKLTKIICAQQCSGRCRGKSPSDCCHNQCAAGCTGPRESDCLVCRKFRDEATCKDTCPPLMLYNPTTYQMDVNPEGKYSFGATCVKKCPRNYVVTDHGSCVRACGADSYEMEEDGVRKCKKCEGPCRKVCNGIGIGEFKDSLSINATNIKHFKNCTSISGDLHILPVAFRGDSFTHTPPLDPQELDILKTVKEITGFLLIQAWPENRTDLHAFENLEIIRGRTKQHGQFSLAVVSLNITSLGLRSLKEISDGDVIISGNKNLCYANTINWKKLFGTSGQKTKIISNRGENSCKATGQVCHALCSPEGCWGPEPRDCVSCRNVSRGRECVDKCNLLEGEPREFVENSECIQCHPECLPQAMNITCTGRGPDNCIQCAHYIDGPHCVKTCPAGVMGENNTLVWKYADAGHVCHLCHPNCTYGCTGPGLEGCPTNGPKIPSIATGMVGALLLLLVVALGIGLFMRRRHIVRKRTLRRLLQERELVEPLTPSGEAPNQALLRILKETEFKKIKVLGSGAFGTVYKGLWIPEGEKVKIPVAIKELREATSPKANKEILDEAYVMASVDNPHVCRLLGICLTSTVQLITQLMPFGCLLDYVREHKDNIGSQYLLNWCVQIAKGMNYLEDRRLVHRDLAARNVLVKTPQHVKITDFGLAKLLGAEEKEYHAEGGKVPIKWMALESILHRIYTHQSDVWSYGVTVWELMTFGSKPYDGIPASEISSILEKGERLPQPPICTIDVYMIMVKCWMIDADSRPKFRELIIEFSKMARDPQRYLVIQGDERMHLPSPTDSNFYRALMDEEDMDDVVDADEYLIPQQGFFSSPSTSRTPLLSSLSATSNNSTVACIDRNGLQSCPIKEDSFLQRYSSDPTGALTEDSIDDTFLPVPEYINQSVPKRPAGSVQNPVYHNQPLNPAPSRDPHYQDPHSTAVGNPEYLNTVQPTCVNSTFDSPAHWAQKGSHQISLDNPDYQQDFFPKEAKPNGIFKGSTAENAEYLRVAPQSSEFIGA

polarization value (phosphatase activity) [1]: remained constant
Molecule: [Na+].[Na+].[Na+].[O]=[V]([O-])([O-])[O-] [vanadate, Na3VO4]

% Activity ([4]; No Lipid Activators): 59%
% Activity ([4]; PS/DAG): 100%
B2: PKC ε lot #6747: Protein Kinase C ε purified to near homogeneity, current lot of the enzyme (protein, UniProt Q02156 1-737, looked up)
Protein kinase C epsilon type: MVVFNGLLKIKICEAVSLKPTAWSLRHAVGPRPQTFLLDPYIALNVDDSRIGQTATKQKTNSPAWHDEFVTDVCNGRKIELAVFHDAPIGYDDFVANCTIQFEELLQNGSRHFEDWIDLEPEGRVYVIIDLSGSSGEAPKDNEERVFRERMRPRKRQGAVRRRVHQVNGHKFMATYLRQPTYCSHCRDFIWGVIGKQGYQCQVCTCVVHKRCHELIITKCAGLKKQETPDQVGSQRFSVNMPHKFGIHNYKVPTFCDHCGSLLWGLLRQGLQCKVCKMNVHRRCETNVAPNCGVDARGIAKVLADLGVTPDKITNSGQRRKKLIAGAESPQPASGSSPSEEDRSKSAPTSPCDQEIKELENNIRKALSFDNRGEEHRAASSPDGQLMSPGENGEVRQGQAKRLGLDEFNFIKVLGKGSFGKVMLAELKGKDEVYAVKVLKKDVILQDDDVDCTMTEKRILALARKHPYLTQLYCCFQTKDRLFFVMEYVNGGDLMFQIQRSRKFDEPRSRFYAAEVTSALMFLHQHGVIYRDLKLDNILLDAEGHCKLADFGMCKEGILNGVTTTTFCGTPDYIAPEILQELEYGPSVDWWALGVLMYEMMAGQPPFEADNEDDLFESILHDDVLYPVWLSKEAVSILKAFMTKNPHKRLGCVASQNGEDAIKQHPFFKEIDWVLLEQKKIKPPFKPRIKTKRDVNNFDQDFTREEPVLTLVDEAIVKQINQEEFKGFSYFGEDLMP
Specific Activity ([4]; No Lipid Activators): 743
Specific Activity ([4]; PS/DAG): 1250

Further lines, the molecule ahead of its results:

Molecule: O=C(O)CN(CCN(CC(=O)O)CC(=O)O)CC(=O)O [EDTA]
EGF receptor kinase activity [2]: inhibits

B1: PKC epsilon: PKC isozyme tested for phosphorylation of GFAP peptide (protein, UniProt Q02156 1-737, looked up)
Protein kinase C epsilon type: MVVFNGLLKIKICEAVSLKPTAWSLRHAVGPRPQTFLLDPYIALNVDDSRIGQTATKQKTNSPAWHDEFVTDVCNGRKIELAVFHDAPIGYDDFVANCTIQFEELLQNGSRHFEDWIDLEPEGRVYVIIDLSGSSGEAPKDNEERVFRERMRPRKRQGAVRRRVHQVNGHKFMATYLRQPTYCSHCRDFIWGVIGKQGYQCQVCTCVVHKRCHELIITKCAGLKKQETPDQVGSQRFSVNMPHKFGIHNYKVPTFCDHCGSLLWGLLRQGLQCKVCKMNVHRRCETNVAPNCGVDARGIAKVLADLGVTPDKITNSGQRRKKLIAGAESPQPASGSSPSEEDRSKSAPTSPCDQEIKELENNIRKALSFDNRGEEHRAASSPDGQLMSPGENGEVRQGQAKRLGLDEFNFIKVLGKGSFGKVMLAELKGKDEVYAVKVLKKDVILQDDDVDCTMTEKRILALARKHPYLTQLYCCFQTKDRLFFVMEYVNGGDLMFQIQRSRKFDEPRSRFYAAEVTSALMFLHQHGVIYRDLKLDNILLDAEGHCKLADFGMCKEGILNGVTTTTFCGTPDYIAPEILQELEYGPSVDWWALGVLMYEMMAGQPPFEADNEDDLFESILHDDVLYPVWLSKEAVSILKAFMTKNPHKRLGCVASQNGEDAIKQHPFFKEIDWVLLEQKKIKPPFKPRIKTKRDVNNFDQDFTREEPVLTLVDEAIVKQINQEEFKGFSYFGEDLMP
substrate phosphorylated (radioactive data for FIG. 6) [3]: 1.47%
